Reference: patent publication US20260176621A1, “Metabolically Stabilized Carbohydrate Targeting Ligands For Oligonucleotide Conjugates” (Arrowhead Pharmaceuticals, Inc., priority 2023, published 2026)

B1: AC005898: APOC3-PCSK9 dimer RNAi agent conjugate with (NAG52)s ligand, SEQ ID NO 17-19 (nucleic acid)
chain 1: ACAAAAGCAAAACAGGUCC
chain 2: UCACUGAGAAUACUGUCCC
chain 3: GGACCUGUUUUGCUUUUGUGGGACAGUAUUCUCAGUNA
modifications: (NAG52)s ligand conjugate; modified_base 1 OTHER; 5'-cyclopropyl phosphonate-2'-O-methyladenosine; modified_base 1^2 OTHER; phosphorothioate linkage; modified_base 2 OTHER; 2'-fluorocytidine; modified_base 2^3 OTHER; modified_base 3 OTHER; 2'-O-methyladenosine; modified_base 3^4 OTHER; modified_base 4 OTHER; 2'-fluoroadenosine; modified_base 5 OTHER; 5'-cyclopropyl phosphonate-2'-O-methyluridine; phosphor
B2: AC003791: APOC3-PCSK9 dimer RNAi agent conjugate with (NAG52)s ligand, SEQ ID NO 14-16 (nucleic acid)
chain 1: AAGUUACAAAAGCAAAACG
chain 2: UCACUGAGAAUACUGUCCC
chain 3: CGUUUUGCUUUUGUAACUUGGGACAGUAUUCUCAGUNA
modifications: (NAG52)s ligand conjugate; modified_base 1 OTHER; 5'-cyclopropyl phosphonate-2'-O-methyladenosine; modified_base 1^2 OTHER; phosphorothioate linkage; modified_base 2 OTHER; 2'-fluoroadenosine; modified_base 2^3 OTHER; modified_base 3 gm; modified_base 4 um; modified_base 5 um; modified_base 6 OTHER; 2'-O-methyladenosine; modified_base 7 cm; modified_base 8 OTHER; modified_base; 5'-cyclopropyl phosphonate-2'-O-methyluridine; 2'-fluorocytidine; phosphor

Key:
Assay type in all cases: in vivo, Cynomolgus monkey
PCSK9 [1] = test: Serum PCSK9 by ELISA (Example 5); settings: for Rel. Exp. PCSK9 (serum, ELISA, normalized to pre-dose): 6.0 mg/kg SQ on Day 1; for inhibition of serum PCSK9: single 6.0 mg/kg SQ on Day 1
Procedure: (§1) On Day 1, three (n=3) male Cynomolgus monkey test animals for each test group were dosed with APOC3-PCSK9 RNAi agents formulated in saline (at 6.0 mg/kg), via subcutaneous (SQ) injection with syringe and needle in the mid-scapular region, at […] dose volume.
(§2) Serum blood (approximately 5.0 mL) was collected on Day −6, Day 8, Day 15, Day 22, Day 29, Day 36, Day 43, Day 50, […], prior to liver biopsy sample collections or dose administration (when applicable), and from any animals found in moribund condition or sacrificed at an unscheduled interval. The collection site was the femoral vein, with a saphenous vein as an alternative collection site.
Serum PCSK9 was quantified via ELISA (R&D Systems, Cat. #DPC900) in accordance with manufacturer's instructions. The relative PCSK9 levels were normalized to pre-dose Day −6.

PCSK9 [2] = test: Liver PCSK9 mRNA expression by qPCR of liver biopsies (Example 5); settings: for Rel. Exp. PCSK9 (liver mRNA, qPCR, normalized to Day −6): 6.0 mg/kg SQ on Day 1
Procedure: as §1
(§3) The liver biopsies and serum collected from the test animals were used for analysis for APOC3 and PCSK9 expression and additional biological parameters. Liver biopsies were collected on Day −6, Day 15, Day 36, Day 50, and Day 64 (post-mortem).
(§4) Liver biopsies were collected as a sedated procedure. Animals were fasted overnight (at least 12 hours but less than 18 hours) prior to each liver biopsy collection. For each animal, collected liver biopsy samples were of approximately 100 mg each (80 to 120 mg).
(§5) The collected liver biopsies were analyzed for APOC3 and PCSK9 expression and additional biological parameters. Liver APOC3 and PCSK9 mRNA expression levels were quantified via qPCR, using cARL1 as endogenous control gene, normalized to Day-6 (pre-dose).

APOC3 [3] = test: Liver APOC3 mRNA expression by qPCR of liver biopsies (Example 5); settings: for Rel. Exp. APOC3 (liver mRNA, qPCR, normalized to Day −6): 6.0 mg/kg SQ on Day 1; for inhibition of liver APOC3 transcripts: single 6.0 mg/kg SQ on Day 1
Procedure: as §1, §3, §4, §5

APOC3 [4] = test: Serum APOC3 by Roche Cobas assay (Example 5); settings: for APOC3 (serum): 6.0 mg/kg SQ on Day 1; for inhibition of serum APOC3 relative to Day −6: single 6.0 mg/kg SQ on Day 1
Procedure: as §1, §2
Serum APOC3 was quantified via Roche Cobas® assay for APOC3 in accordance with manufacturer's instructions.

Molecule	Rel. Exp. PCSK9 (serum, ELISA, normalized to pre-dose) (PCSK9 [1]; Day 1)	Rel. Exp. PCSK9 (serum, ELISA, normalized to pre-dose) (PCSK9 [1]; Day 8)	Rel. Exp. PCSK9 (serum, ELISA, normalized to pre-dose) (PCSK9 [1]; Day 15)	Rel. Exp. PCSK9 (serum, ELISA, normalized to pre-dose) (PCSK9 [1]; Day 22)	Rel. Exp. PCSK9 (serum, ELISA, normalized to pre-dose) (PCSK9 [1]; Day 29)	Rel. Exp. PCSK9 (serum, ELISA, normalized to pre-dose) (PCSK9 [1]; Day 36)	Rel. Exp. PCSK9 (serum, ELISA, normalized to pre-dose) (PCSK9 [1]; Day 43)	Rel. Exp. PCSK9 (serum, ELISA, normalized to pre-dose) (PCSK9 [1]; Day 50)	Rel. Exp. PCSK9 (serum, ELISA, normalized to pre-dose) (PCSK9 [1]; Day 57)	Rel. Exp. PCSK9 (serum, ELISA, normalized to pre-dose) (PCSK9 [1]; Day 64)	Rel. Exp. PCSK9 (serum, ELISA, normalized to pre-dose) (PCSK9 [1]; Day −6 (pre-dose))	Rel. Exp. PCSK9 (liver mRNA, qPCR, normalized to Day −6) (PCSK9 [2]; Day 15)	Rel. Exp. PCSK9 (liver mRNA, qPCR, normalized to Day −6) (PCSK9 [2]; Day 36)	Rel. Exp. PCSK9 (liver mRNA, qPCR, normalized to Day −6) (PCSK9 [2]; Day 50)	Rel. Exp. PCSK9 (liver mRNA, qPCR, normalized to Day −6) (PCSK9 [2]; Day 64)	Rel. Exp. PCSK9 (liver mRNA, qPCR, normalized to Day −6) (PCSK9 [2]; Day −6 (pre-dose baseline))	Rel. Exp. APOC3 (liver mRNA, qPCR, normalized to Day −6) (APOC3 [3]; Day 15)	Rel. Exp. APOC3 (liver mRNA, qPCR, normalized to Day −6) (APOC3 [3]; Day 36)	Rel. Exp. APOC3 (liver mRNA, qPCR, normalized to Day −6) (APOC3 [3]; Day 50)	Rel. Exp. APOC3 (liver mRNA, qPCR, normalized to Day −6) (APOC3 [3]; Day 64)	further results
B1	1.004	0.724	0.561	0.560	0.617	0.426	0.790	0.728	0.762	0.928	1.140	0.614	0.520	0.528	0.457	1.000	0.545	0.929	0.491	0.535	Rel. Exp. APOC3 (liver mRNA, qPCR, normalized to Day −6) (APOC3 [3]; Day −6 (pre-dose baseline)): 1.000; APOC3 (serum) (APOC3 [4]; Day 1): 6.10 mg/dL; APOC3 (serum) (APOC3 [4]; Day 8): 4.61 mg/dL; APOC3 (serum) (APOC3 [4]; Day 15): 3.59 mg/dL; inhibition of serum APOC3 relative to Day −6 (APOC3 [4]; Day 22 (nadir)): approximately 40%; APOC3 (serum) (APOC3 [4]; Day 22): 3.50 mg/dL; APOC3 (serum) (APOC3 [4]; Day 29): 4.16 mg/dL; APOC3 (serum) (APOC3 [4]; Day 36): 3.59 mg/dL; APOC3 (serum) (APOC3 [4]; Day 43): 4.07 mg/dL; APOC3 (serum) (APOC3 [4]; Day 50): 3.96 mg/dL; APOC3 (serum) (APOC3 [4]; Day 57): 4.94 mg/dL; APOC3 (serum) (APOC3 [4]; Day 64): 4.47 mg/dL; inhibition of serum APOC3 relative to Day −6 (APOC3 [4]; Day 64): approximately 23%; APOC3 (serum) (APOC3 [4]; Day −6 (pre-dose baseline)): 5.84 mg/dL
B2	1.161	0.682	0.415	0.339	0.353	0.323	0.375	0.759	0.431	0.538	0.925	0.692	0.908	1.271	0.351	1.000	0.408	0.611	0.336	0.500	inhibition of serum PCSK9 (PCSK9 [1]; Day 36 (nadir)): approximately 67%; inhibition of serum PCSK9 (PCSK9 [1]; Day 64): approximately 46%; inhibition of liver PCSK9 transcripts (PCSK9 [2]; Day 64, single 6.0 mg/kg SQ on Day 1): approximately 64%; inhibition of liver APOC3 transcripts (APOC3 [3]; Day 50): approximately 66%; inhibition of liver APOC3 transcripts (APOC3 [3]; Day 64): approximately 50%; Rel. Exp. APOC3 (liver mRNA, qPCR, normalized to Day −6) (APOC3 [3]; Day −6 (pre-dose baseline)): 1.000; APOC3 (serum) (APOC3 [4]; Day 1): 6.48 mg/dL; APOC3 (serum) (APOC3 [4]; Day 8): 4.57 mg/dL; APOC3 (serum) (APOC3 [4]; Day 15): 4.03 mg/dL; APOC3 (serum) (APOC3 [4]; Day 22): 2.92 mg/dL; APOC3 (serum) (APOC3 [4]; Day 29): 3.69 mg/dL; inhibition of serum APOC3 relative to Day −6 (APOC3 [4]; Day 36 (nadir)): approximately 51%; APOC3 (serum) (APOC3 [4]; Day 36): 2.96 mg/dL; APOC3 (serum) (APOC3 [4]; Day 43): 3.18 mg/dL; APOC3 (serum) (APOC3 [4]; Day 50): 3.32 mg/dL; APOC3 (serum) (APOC3 [4]; Day 57): 4.56 mg/dL; APOC3 (serum) (APOC3 [4]; Day 64): 4.65 mg/dL; inhibition of serum APOC3 relative to Day −6 (APOC3 [4]; Day 64): approximately 24%; APOC3 (serum) (APOC3 [4]; Day −6 (pre-dose baseline)): 6.15 mg/dL
